In article PMC6995580, “Thermal Inactivation of a Cold-Active Esterase PMGL3 Isolated from the Permafrost Metagenomic Library” (Biomolecules, 2019):

What was measured:
[1] = molecular target: PMGL3 mutant C207F (not stated (permafrost metagenomic library)); experiment: SEC; Superdex 75 10/300 GL, 0.4 mL/min, 100 mM Tris-HCl pH 8.0, 150 mM NaCl; fresh sample before heating; column calibrated with 29-669 kDa standards
[2] = molecular target: PMGL3 mutant C207F (not stated (permafrost metagenomic library)); experiment: SEC; Superdex 75 10/300 GL, 0.4 mL/min, 100 mM Tris-HCl pH 8.0, 150 mM NaCl; sample after incubation for 1 h at 40 °C; column calibrated with 29-669 kDa standards
[3] = system: T1, CCCC(=O)Oc1ccc([N+](=O)[O-])cc1; experiment: p-nitrophenol release, Lineweaver-Burk plot; assay type: biochemical, uncultured bacterium; settings: 50 mM Tris-HCl pH 8.0, 100 mM NaCl, 30 °C, 0.1-1.25 mM substrate
T1 construct: dimer ~70 kDa; residues Cys49 and Cys207
Excerpt: p-nitrophenol release, Lineweaver-Burk plot on PMGL3

[4] = molecular target: PMGL3 mutant C49V (not stated (permafrost metagenomic library)); experiment: SEC; Superdex 75 10/300 GL, 0.4 mL/min, 100 mM Tris-HCl pH 8.0, 150 mM NaCl; fresh sample before heating; column calibrated with 29-669 kDa standards
[5] = molecular target: PMGL3 mutant C49V (not stated (permafrost metagenomic library)); experiment: SEC; Superdex 75 10/300 GL, 0.4 mL/min, 100 mM Tris-HCl pH 8.0, 150 mM NaCl; sample after incubation for 1 h at 40 °C; column calibrated with 29-669 kDa standards
[6] = molecular target: cold-active esterase PMGL3 (wild type) (not stated (permafrost metagenomic library)); experiment: SEC; Superdex 75 10/300 GL, 0.4 mL/min, 100 mM Tris-HCl pH 8.0, 150 mM NaCl; fresh sample before heating; column calibrated with 29-669 kDa standards
[7] = molecular target: cold-active esterase PMGL3 (wild type) (not stated (permafrost metagenomic library)); experiment: SEC; Superdex 75 10/300 GL, 0.4 mL/min, 100 mM Tris-HCl pH 8.0, 150 mM NaCl; sample after incubation for 1 h at 40 °C; column calibrated with 29-669 kDa standards

Substance | Km [3] | Vmax [3] | kcat [3] | kcat/Km [3] | other results
PMGL3 mutant C207F (enzyme) |  |  |  |  | stoichiometry N [1]: 2; stoichiometry N [2]: 4
PMGL3 (unidentified; C207F) | 170 µM | 94600 µM/min/mg | 52.5 s⁻¹ | 309000 M⁻¹ s⁻¹ | 
PMGL3 mutant C49V (enzyme) |  |  |  |  | stoichiometry N [4]: 2; stoichiometry N [5]: 4
PMGL3 (unidentified; C49V) | 1290 µM | 94700 µM/min/mg | 52.6 s⁻¹ | 40800 M⁻¹ s⁻¹ | 
cold-active esterase PMGL3 (wild type) (enzyme) |  |  |  |  | stoichiometry N [6]: 2; stoichiometry N [7]: 4
PMGL3 (unidentified) | 980 µM | 165000 µM/min/mg | 91.5 s⁻¹ | 93400 M⁻¹ s⁻¹ | 
